Key:
[1] = molecular target: His6-TRX-PfPPR1 (Plasmodium falciparum apicoplast pentatricopeptide repeat protein 1, with His6-TRX tag) (Plasmodium falciparum); assay: SEC
[2] = molecular target: PfPPR1 minus the His6-TRX tag (tag cleaved by HRV 3C protease) (Plasmodium falciparum); assay: AUC

Row | Substance | stoichiometry N [1] | stoichiometry N [2]
1 | His6-TRX-PfPPR1 (Plasmodium falciparum apicoplast pentatricopeptide repeat protein 1, with His6-TRX tag) (natural protein) | 2 | 
2 | PfPPR1 minus the His6-TRX tag (tag cleaved by HRV 3C protease) (natural protein) |  | 2

Reference: publication doi:10.1101/388728
